Measurements as given in patent US20240400715A1.
Residue numbers refer to the chain shown, from its start.

B1: EGFR-CD3 bispecific antibody 401 (bispecific antibody, human IgG4 S228P, kappa, F234A L235A)
heavy: EVKLLESGGGLVQPKGSLKLSCAASGFTFNTYAMNWVRQAPGKGLEWVARIRSKYNNYATYYADSVKDRFTISRDDSQSILYLQMNNLKTEDTAMYYCVRHGNFGNSYVSWFAYWGQGTLVTVSSASTKGPSVFPLAPCSRSTSESTAALGCLVKDYFPEPVTVSWNSGALTSGVHTFPAVLQSSGLYSLSSVVTVPSSSLGTKTYTCNVDHKPSNTKVDKRVESKYGPPCPPCPAPEAAGGPSVFLFPPKPKDTLMISRTPEVTCVVVDVSQEDPEVQFNWYVDGVEVHNAKTKPREEQFNSTYRVVSVLTVLHQDWLNGKEYKCKVSNKGLPSSIEKTISKAKGQPREPQVYTLPPCQEEMTKNQVSLWCLVKGFYPSDIAVEWESNGQPENNYKTTPPVLDSDGSFFLYSRLTVDKSRWQEGNVFSCSVMHEALHNHYTQKSLSLSL
chain: QVQLQESGGGSVQAGGSLKLSCAASGRGFSRYAMGWFRQAPGQDREFVATISWTNSTDYADSVKGRFAISRDNAKNTAYLQMNSLKPEDTAVYYCAADKWASSTRSIDYDYWGQGIQVTVSSESKYGPPCPPCPAPEAAGGPSVFLFPPKPKDTLMISRTPEVTCVVVDVSQEDPEVQFNWYVDGVEVHNAKTKPREEQFNSTYRVVSVLTVLHQDWLNGKEYKCKVSNKGLPSSIEKTISKAKGQPREPQVCTLPPSQEEMTKNQVSLSCAVKGFYPSDIAVEWESNGQPENNYKTTPPVLDSDGSFFLVSRLTVDKSRWQEGNVFSCSVMHEALHNRFTQKSLSLSL
light: QAVVTQESALTTSPGETVTLTCRSSTGAVTTSNYANWVQEKPDHLFTGLIGGTNKRAPGVPARFSGSLIGDKAALTITGAQTEDEAIYFCALWYSNLWVFGGGTKVEIKRTVAAPSVFIFPPSDEQLKSGTASVVCLLNNFYPREAKVQWKVDNALQSGNSQESVTEQDSKDSTYSLSSTLTLSKADYEKHKVYACEVTHQGLSSPVTKSFNRGEC
B2: HER2-CD3 bispecific antibody 504 (bispecific antibody, human IgG4 S228P, kappa, F234A L235A)
chain: QVQLVQSGGGLVQAGGSLRLSCAASGRTFSSYAMAWFRQAPGKEREFVAAISWSGANIYVADSVKGRFTISRDNAKDTVYLQMNSLKPEDTAVYYCAVKLGFAPVEERQYDYWGQGTQVTVSSESKYGPPCPPCPAPEAAGGPSVFLFPPKPKDTLMISRTPEVTCVVVDVSQEDPEVQFNWYVDGVEVHNAKTKPREEQFNSTYRVVSVLTVLHQDWLNGKEYKCKVSNKGLPSSIEKTISKAKGQPREPQVYTLPPCQEEMTKNQVSLWCLVKGFYPSDIAVEWESNGQPENNYKTTPPVLDSDGSFFLYSRLTVDKSRWQEGNVFSCSVMHEALHNHYTQKSLSLSL
heavy: B1 heavy with Y354C, C359S, W371S, L373A, Y412V, H440R, Y441F
light: B1 light

Key:
[1] = target: EGFR-CD3 bispecific antibody 401; experiment: BLI self-interaction: antibody captured on AHQ anti-human Fc sensor, free sites blocked with human IgG, same antibody in solution
[2] = target: HER2-CD3 bispecific antibody 504; experiment: as above

Row | Binder | BLI-Response (self-interaction signal) [1] | BLI-Response (self-interaction signal) [2]
1 | B1 | 0.043 nm | –
2 | B2 | – | 0.07 nm
